Assay results from the supplement of paper PMC11136658.

System: peptide library, one residue held at a place counted from the Y acceptor
Assay: relative phosphorylation of the sub-library (ratio to the mean residue at this position); higher = residue favoured
Procedure, shortened: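 Within 384-well plates, purified recombinant kinases phosphorylated biotinylated Tyr-centred peptide library mixtures over 90 min using 50 μM ATP spiked with γ-32P-ATP; each mixture fixed one residue at one position from −5 to +5. Streptavidin membrane capture, rinsing, phosphorimaging and ImageQuant gave the intensities. These were normalized per position to the sum of the 18 randomized residues (16 for the Ser/Thr-free library) and multiplied by that number.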

TYRO3, construct: aa455-end, human, sequence (Q06418 455-890, looked up): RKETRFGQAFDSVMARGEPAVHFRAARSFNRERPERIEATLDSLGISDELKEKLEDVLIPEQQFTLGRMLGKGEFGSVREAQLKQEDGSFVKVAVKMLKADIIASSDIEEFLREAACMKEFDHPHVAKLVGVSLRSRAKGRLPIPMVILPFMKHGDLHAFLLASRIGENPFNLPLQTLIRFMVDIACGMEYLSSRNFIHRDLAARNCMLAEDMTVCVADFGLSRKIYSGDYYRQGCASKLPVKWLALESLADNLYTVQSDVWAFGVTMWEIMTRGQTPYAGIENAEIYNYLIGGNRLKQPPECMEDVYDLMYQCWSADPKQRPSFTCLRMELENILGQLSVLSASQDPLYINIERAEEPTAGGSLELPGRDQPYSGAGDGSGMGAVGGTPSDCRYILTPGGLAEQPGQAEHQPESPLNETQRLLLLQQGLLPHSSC

SYK, construct: Full length, human (from UniProt P43405)
relative phosphorylation
Conditions | at +1 | at +2 | at +3 | at +4 | at +5 | at -1 | at -2 | at -3 | at -4 | at -5
A fixed | 0.893 | 0.772 | 0.955 | 0.937 | 0.988 | 0.68 | 0.908 | 0.734 | 1.07 | 0.954
D fixed | 1.01 | 1.13 | 0.812 | 1.23 | 1.14 | 4.23 | 2.04 | 2.29 | 1.89 | 1.54
E fixed | 4.05 | 1.74 | 0.941 | 1.39 | 1.2 | 3.04 | 2.21 | 2.61 | 1.96 | 1.49
F fixed | 0.838 | 1.27 | 1.12 | 1.09 | 1 | 0.665 | 0.675 | 0.914 | 1.07 | 1.02
G fixed | 0.363 | 0.78 | 1.2 | 0.965 | 0.96 | 0.379 | 1.04 | 0.896 | 0.964 | 1.03
H fixed | 0.665 | 0.752 | 0.813 | 0.988 | 0.919 | 0.673 | 0.863 | 0.873 | 0.769 | 0.933
I fixed | 1.22 | 1.02 | 1.51 | 0.751 | 0.826 | 1.17 | 0.766 | 0.689 | 0.773 | 0.949
K fixed | 0.25 | 0.588 | 0.584 | 0.875 | 0.916 | 0.204 | 0.46 | 0.459 | 0.593 | 0.681
L fixed | 0.86 | 0.929 | 1.02 | 0.802 | 0.966 | 0.912 | 0.837 | 0.805 | 0.99 | 1.04
M fixed | 0.907 | 0.965 | 0.924 | 1.1 | 0.944 | 0.725 | 0.728 | 0.758 | 0.818 | 0.944
N fixed | 0.505 | 1.11 | 0.771 | 0.896 | 1.03 | 1.02 | 1.21 | 1.26 | 0.868 | 1.13
P fixed | 0.288 | 0.669 | 1.67 | 1.08 | 1.27 | 0.672 | 1.03 | 0.868 | 1.08 | 0.966
Q fixed | 1.1 | 0.972 | 0.761 | 1.11 | 0.983 | 0.674 | 1.13 | 0.864 | 1.11 | 1.08
R fixed | 0.302 | 0.74 | 0.619 | 0.856 | 0.926 | 0.219 | 0.535 | 0.523 | 0.641 | 0.716
S fixed | 1.1 | 1.01 | 0.892 | 0.97 | 0.965 | 0.587 | 1.1 | 0.915 | 0.758 | 0.895
T fixed | 1.23 | 1.02 | 0.907 | 0.932 | 1.1 | 0.779 | 0.832 | 0.885 | 0.651 | 0.725
V fixed | 1.47 | 0.978 | 1.4 | 0.874 | 0.89 | 0.935 | 0.857 | 0.703 | 0.811 | 0.772
W fixed | 0.951 | 1.56 | 1.1 | 1.14 | 0.961 | 0.44 | 0.771 | 0.948 | 1.19 | 1.14
pThr fixed | 3.24 | 2.33 | 0.946 | 1.54 | 1.38 | 6.21 | 3.86 | 2.93 | 2.36 | 1.85
pTyr fixed | 6.41 | 3.62 | 1.53 | 1.73 | 1.32 | 4.49 | 2.56 | 3.83 | 2.99 | 2.2

TYRO3, construct: aa455-end, human (from UniProt Q06418)
relative phosphorylation
Conditions | at +1 | at +2 | at +3 | at +4 | at +5 | at -1 | at -2 | at -3 | at -4 | at -5
A fixed | 1.64 | 0.682 | 0.632 | 0.906 | 1.04 | 0.893 | 0.982 | 1 | 1.15 | 0.987
D fixed | 0.676 | 0.549 | 0.322 | 0.681 | 0.669 | 0.66 | 0.935 | 1.1 | 1.03 | 1.01
E fixed | 1.19 | 0.767 | 0.252 | 0.729 | 0.592 | 0.56 | 1.04 | 1.28 | 1.19 | 0.874
F fixed | 1.07 | 1.28 | 1.44 | 1.11 | 0.885 | 1.23 | 0.653 | 0.819 | 0.883 | 0.866
G fixed | 0.816 | 0.424 | 0.71 | 1.2 | 1.26 | 0.524 | 1.3 | 1.18 | 1.35 | 1.2
H fixed | 1.12 | 0.864 | 1.36 | 1.16 | 0.955 | 1.4 | 1.09 | 1.09 | 0.966 | 1.05
I fixed | 0.991 | 1.12 | 1.58 | 0.796 | 0.758 | 1.63 | 0.772 | 0.656 | 0.826 | 0.854
K fixed | 0.534 | 1.1 | 1.03 | 1.18 | 1.39 | 0.719 | 1.14 | 0.998 | 1.04 | 1.16
L fixed | 0.938 | 1.36 | 1.19 | 0.932 | 0.867 | 1.88 | 0.858 | 0.752 | 0.843 | 0.892
M fixed | 1.26 | 1.22 | 1.18 | 1.04 | 0.868 | 1.09 | 0.7 | 0.866 | 0.864 | 0.964
N fixed | 0.544 | 0.901 | 0.626 | 0.843 | 1.01 | 1.03 | 1.25 | 1.16 | 0.956 | 1.19
P fixed | 0.412 | 0.657 | 0.864 | 1.18 | 1.62 | 0.821 | 1.09 | 1.27 | 1.3 | 1.19
Q fixed | 1.13 | 0.962 | 0.795 | 1.07 | 0.936 | 0.837 | 1.23 | 1.06 | 1.22 | 1.06
R fixed | 0.597 | 1.13 | 1.2 | 1.28 | 1.33 | 0.655 | 1.04 | 0.959 | 1.06 | 1.19
S fixed | 1.25 | 0.799 | 0.718 | 1.01 | 1.06 | 0.849 | 1.28 | 1.2 | 0.866 | 0.977
T fixed | 1.2 | 0.996 | 0.808 | 0.85 | 0.982 | 1.07 | 1.13 | 1.09 | 0.775 | 0.884
V fixed | 1.37 | 1.21 | 1.26 | 0.876 | 0.831 | 1.16 | 0.868 | 0.755 | 0.803 | 0.785
W fixed | 1.25 | 1.98 | 2.04 | 1.16 | 0.946 | 1 | 0.649 | 0.764 | 0.888 | 0.868
pThr fixed | 1.04 | 0.889 | 0.217 | 0.396 | 0.43 | 0.664 | 0.826 | 0.977 | 0.895 | 0.854
pTyr fixed | 0.911 | 1.28 | 0.324 | 0.56 | 0.399 | 1.06 | 0.954 | 1.2 | 1.12 | 0.96
